From patent US20230357446A1

Molecular target: CD22 on WSU-DLCL2 cells (WSU-DLCL2/CD22^WT; absent from the CRISPR-edited WSU-DLCL2/CD22^KO line) (human) (UniProt P20273)
Experiment: cell-based or functional assay

REGN5837 (bispecific antibody) showed a % CD22^KO Survival; ratio CD22^KO:CD22^WT 20:80; 5 pM R1979 +0.46 nM R5837 of 29.9%, a % CD22^KO Survival; ratio CD22^KO:CD22^WT 20:80; 5 pM R1979 +2.8 nM R5837 of 25.2% and a % CD22^KO Survival; ratio CD22^KO:CD22^WT 20:80; 5 pM R1979 +16.7 nM R5837 of 20.9%. It also gave a % CD22^KO Survival; ratio CD22^KO:CD22^WT 40:60; 5 pM R1979 +0.46 nM R5837 of 31.9%, a % CD22^KO Survival; ratio CD22^KO:CD22^WT 40:60; 5 pM R1979 +2.8 nM R5837 of 24.1% and a % CD22^KO Survival; ratio CD22^KO:CD22^WT 40:60; 5 pM R1979 +16.7 nM R5837 of 19.9%. The % CD22^KO Survival; ratio CD22^KO:CD22^WT 60:40; 5 pM R1979 +0.46 nM R5837 was 33.9%, the % CD22^KO Survival; ratio CD22^KO:CD22^WT 60:40; 5 pM R1979 +2.8 nM R5837 was 28.2% and the % CD22^KO Survival; ratio CD22^KO:CD22^WT 60:40; 5 pM R1979 +16.7 nM R5837 was 19.1%. For the same substance, the % CD22^KO Survival; ratio CD22^KO:CD22^WT 80:20; 5 pM R1979 +0.46 nM R5837 was 37.2%, the % CD22^KO Survival; ratio CD22^KO:CD22^WT 80:20; 5 pM R1979 +2.8 nM R5837 was 28.8% and the % CD22^KO Survival; ratio CD22^KO:CD22^WT 80:20; 5 pM R1979 +16.7 nM R5837 was 26.9%. It also gave a % CD22^KO Survival; ratio CD22^KO:CD22^WT 100:0; 5 pM R1979 +0.46 nM R5837 of 60.1%, a % CD22^KO Survival; ratio CD22^KO:CD22^WT 100:0; 5 pM R1979 +2.8 nM R5837 of 56% and a % CD22^KO Survival; ratio CD22^KO:CD22^WT 100:0; 5 pM R1979 +16.7 nM R5837 of 45.4%. For the same substance, the % CD22^WT Survival; ratio CD22^KO:CD22^WT 0:100; 5 pM R1979 +0.46 nM R5837 was 28.5%, the % CD22^WT Survival; ratio CD22^KO:CD22^WT 0:100; 5 pM R1979 +2.8 nM R5837 was 22.4% and the % CD22^WT Survival; ratio CD22^KO:CD22^WT 0:100; 5 pM R1979 +16.7 nM R5837 was 12.6%. It also gave a % CD22^WT Survival; ratio CD22^KO:CD22^WT 20:80; 5 pM R1979 +0.46 nM R5837 of 19.3%, a % CD22^WT Survival; ratio CD22^KO:CD22^WT 20:80; 5 pM R1979 +2.8 nM R5837 of 16.4% and a % CD22^WT Survival; ratio CD22^KO:CD22^WT 20:80; 5 pM R1979 +16.7 nM R5837 of 11.2%. It also gave a % CD22^WT Survival; ratio CD22^KO:CD22^WT 40:60; 5 pM R1979 +0.46 nM R5837 of 20.1%, a % CD22^WT Survival; ratio CD22^KO:CD22^WT 40:60; 5 pM R1979 +2.8 nM R5837 of 12.8% and a % CD22^WT Survival; ratio CD22^KO:CD22^WT 40:60; 5 pM R1979 +16.7 nM R5837 of 9.45%. It also gave a % CD22^WT Survival; ratio CD22^KO:CD22^WT 60:40; 5 pM R1979 +0.46 nM R5837 of 19.1%, a % CD22^WT Survival; ratio CD22^KO:CD22^WT 60:40; 5 pM R1979 +2.8 nM R5837 of 12.4% and a % CD22^WT Survival; ratio CD22^KO:CD22^WT 60:40; 5 pM R1979 +16.7 nM R5837 of 8.6%. It also gave a % CD22^WT Survival; ratio CD22^KO:CD22^WT 80:20; 5 pM R1979 +0.46 nM R5837 of 20.6%, a % CD22^WT Survival; ratio CD22^KO:CD22^WT 80:20; 5 pM R1979 +2.8 nM R5837 of 13.1% and a % CD22^WT Survival; ratio CD22^KO:CD22^WT 80:20; 5 pM R1979 +16.7 nM R5837 of 7.95%. It also gave a CD4+ T cell activation (MFI of CD25); ratio CD22^KO:CD22^WT 0:100; 5 pM R1979 +0.46 nM R5837 of 13400 MFI, a CD4+ T cell activation (MFI of CD25); ratio CD22^KO:CD22^WT 0:100; 5 pM R1979 +2.8 nM R5837 of 14800 MFI and a CD4+ T cell activation (MFI of CD25); ratio CD22^KO:CD22^WT 0:100; 5 pM R1979 +16.7 nM R5837 of 17700 MFI. It also gave a CD4+ T cell activation (MFI of CD25); ratio CD22^KO:CD22^WT 20:80; 5 pM R1979 +0.46 nM R5837 of 11200 MFI, a CD4+ T cell activation (MFI of CD25); ratio CD22^KO:CD22^WT 20:80; 5 pM R1979 +2.8 nM R5837 of 14400 MFI and a CD4+ T cell activation (MFI of CD25); ratio CD22^KO:CD22^WT 20:80; 5 pM R1979 +16.7 nM R5837 of 15300 MFI. It also gave a CD4+ T cell activation (MFI of CD25); ratio CD22^KO:CD22^WT 40:60; 5 pM R1979 +0.46 nM R5837 of 11800 MFI, a CD4+ T cell activation (MFI of CD25); ratio CD22^KO:CD22^WT 40:60; 5 pM R1979 +2.8 nM R5837 of 13200 MFI and a CD4+ T cell activation (MFI of CD25); ratio CD22^KO:CD22^WT 40:60; 5 pM R1979 +16.7 nM R5837 of 13600 MFI. It also gave a CD4+ T cell activation (MFI of CD25); ratio CD22^KO:CD22^WT 60:40; 5 pM R1979 +0.46 nM R5837 of 8520 MFI, a CD4+ T cell activation (MFI of CD25); ratio CD22^KO:CD22^WT 60:40; 5 pM R1979 +2.8 nM R5837 of 10900 MFI and a CD4+ T cell activation (MFI of CD25); ratio CD22^KO:CD22^WT 60:40; 5 pM R1979 +16.7 nM R5837 of 12000 MFI. It also gave a CD4+ T cell activation (MFI of CD25); ratio CD22^KO:CD22^WT 80:20; 5 pM R1979 +0.46 nM R5837 of 7520 MFI, a CD4+ T cell activation (MFI of CD25); ratio CD22^KO:CD22^WT 80:20; 5 pM R1979 +2.8 nM R5837 of 8280 MFI and a CD4+ T cell activation (MFI of CD25); ratio CD22^KO:CD22^WT 80:20; 5 pM R1979 +16.7 nM R5837 of 9850 MFI. The CD4+ T cell activation (MFI of CD25); ratio CD22^KO:CD22^WT 100:0; 5 pM R1979 +0.46 nM R5837 was 4280 MFI, the CD4+ T cell activation (MFI of CD25); ratio CD22^KO:CD22^WT 100:0; 5 pM R1979 +2.8 nM R5837 was 4060 MFI and the CD4+ T cell activation (MFI of CD25); ratio CD22^KO:CD22^WT 100:0; 5 pM R1979 +16.7 nM R5837 was 3150 MFI. It also gave a CD8+ T cell activation (MFI of CD25); ratio CD22^KO:CD22^WT 0:100; 5 pM R1979 +0.46 nM R5837 of 7920 MFI, a CD8+ T cell activation (MFI of CD25); ratio CD22^KO:CD22^WT 0:100; 5 pM R1979 +2.8 nM R5837 of 9030 MFI and a CD8+ T cell activation (MFI of CD25); ratio CD22^KO:CD22^WT 0:100; 5 pM R1979 +16.7 nM R5837 of 9880 MFI. It also gave a CD8+ T cell activation (MFI of CD25); ratio CD22^KO:CD22^WT 20:80; 5 pM R1979 +0.46 nM R5837 of 6310 MFI, a CD8+ T cell activation (MFI of CD25); ratio CD22^KO:CD22^WT 20:80; 5 pM R1979 +2.8 nM R5837 of 8410 MFI and a CD8+ T cell activation (MFI of CD25); ratio CD22^KO:CD22^WT 20:80; 5 pM R1979 +16.7 nM R5837 of 8660 MFI. The CD8+ T cell activation (MFI of CD25); ratio CD22^KO:CD22^WT 40:60; 5 pM R1979 +0.46 nM R5837 was 6140 MFI, the CD8+ T cell activation (MFI of CD25); ratio CD22^KO:CD22^WT 40:60; 5 pM R1979 +2.8 nM R5837 was 7920 MFI and the CD8+ T cell activation (MFI of CD25); ratio CD22^KO:CD22^WT 40:60; 5 pM R1979 +16.7 nM R5837 was 7880 MFI. For the same substance, the CD8+ T cell activation (MFI of CD25); ratio CD22^KO:CD22^WT 60:40; 5 pM R1979 +0.46 nM R5837 was 4800 MFI, the CD8+ T cell activation (MFI of CD25); ratio CD22^KO:CD22^WT 60:40; 5 pM R1979 +2.8 nM R5837 was 6620 MFI and the CD8+ T cell activation (MFI of CD25); ratio CD22^KO:CD22^WT 60:40; 5 pM R1979 +16.7 nM R5837 was 6670 MFI. The CD8+ T cell activation (MFI of CD25); ratio CD22^KO:CD22^WT 80:20; 5 pM R1979 +0.46 nM R5837 was 4250 MFI, the CD8+ T cell activation (MFI of CD25); ratio CD22^KO:CD22^WT 80:20; 5 pM R1979 +2.8 nM R5837 was 4890 MFI and the CD8+ T cell activation (MFI of CD25); ratio CD22^KO:CD22^WT 80:20; 5 pM R1979 +16.7 nM R5837 was 4970 MFI. It also gave a CD8+ T cell activation (MFI of CD25); ratio CD22^KO:CD22^WT 100:0; 5 pM R1979 +0.46 nM R5837 of 3000 MFI, a CD8+ T cell activation (MFI of CD25); ratio CD22^KO:CD22^WT 100:0; 5 pM R1979 +2.8 nM R5837 of 2510 MFI and a CD8+ T cell activation (MFI of CD25); ratio CD22^KO:CD22^WT 100:0; 5 pM R1979 +16.7 nM R5837 of 2160 MFI.
